{
  "source": "paper PMC6007841",
  "target": "human melanocortin 1 receptor (human) (UniProt Q01726)",
  "sequence (Q01726 whole entry)": "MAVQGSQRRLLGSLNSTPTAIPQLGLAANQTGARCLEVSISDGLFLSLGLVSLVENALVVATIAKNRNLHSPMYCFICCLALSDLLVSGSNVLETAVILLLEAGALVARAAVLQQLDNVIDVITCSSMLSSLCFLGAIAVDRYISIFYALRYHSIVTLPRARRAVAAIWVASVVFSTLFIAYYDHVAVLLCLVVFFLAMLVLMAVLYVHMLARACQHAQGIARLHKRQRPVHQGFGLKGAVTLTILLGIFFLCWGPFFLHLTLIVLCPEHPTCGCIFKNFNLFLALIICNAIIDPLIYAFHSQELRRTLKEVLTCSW",
  "data": [
    {"binder": "DQYKCLQHGGFCLRSSCPSNTKLQGTCKPDKPNCCKS (reduced, linear form)", "note": "[mouse β-defensin 1, linear, reduced form]", "values": [
      {"measurement": "cAMP agonist EC50 (AlphaScreen cAMP assay, HEK293 cells expressing the receptor)", "value": 4.5, "unit": "µM"}
    ]}
  ]
}
